Test results from US20070111265A1, “Ligands for mineralocorticoid receptor (MR) and methods for screening for or designing MR ligands” (Van Andel Research Institute, priority 2005, published 2007).

T1: purified MR/corticosterone complex (MR LBD C808S) (Homo sapiens, UniProt P08235, C808S)
T1 construct: made in house; host or cells: E. coli BL21DE3 (pET24a)
T1 sequence (P08235 727-984 C808S): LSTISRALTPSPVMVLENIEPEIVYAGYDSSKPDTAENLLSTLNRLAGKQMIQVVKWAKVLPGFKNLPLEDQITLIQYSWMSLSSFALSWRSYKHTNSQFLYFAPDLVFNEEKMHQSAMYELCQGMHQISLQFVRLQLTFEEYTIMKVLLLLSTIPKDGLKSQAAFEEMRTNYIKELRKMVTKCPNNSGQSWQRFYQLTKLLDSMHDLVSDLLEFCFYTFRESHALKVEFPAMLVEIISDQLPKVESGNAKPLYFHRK

T2: VP16-MR LBD (Homo sapiens, UniProt P08235)
T2 construct: expressed in transfected cells; host or cells: Cos-7
T2 sequence (P08235 727-984): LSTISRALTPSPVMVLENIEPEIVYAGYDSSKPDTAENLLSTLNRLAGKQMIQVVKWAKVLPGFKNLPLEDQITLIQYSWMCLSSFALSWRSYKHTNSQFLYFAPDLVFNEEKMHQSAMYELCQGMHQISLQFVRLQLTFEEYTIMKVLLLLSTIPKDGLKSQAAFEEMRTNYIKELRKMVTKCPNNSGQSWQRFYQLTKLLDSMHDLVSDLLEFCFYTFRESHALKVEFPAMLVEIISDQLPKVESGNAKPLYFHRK


Experiments:
[1] = target: T1, purified MR/corticosterone complex (MR LBD C808S); assay: AlphaScreen peptide competition (IC50) of coactivator LXXLL motifs; assay type: binding
Text: (D) Binding affinity of various coactivator LXXLL motifs to the purified MR/corticosterone complex as determined by IC50 values from peptide competition experiments using AlphaScreen assays. The numbering scheme of the LXXLL motifs is shown on the top of the sequences.
SRC2-(2+3) and […] SRC2 protein fragments containing 2nd and 3rd LXXLL motifs. The 2nd LXXLL motif of SRC2 was mutated to LXXAA in SRC2-(M2+3).
(G) Binding affinity of PGC1α-(1+2), PGC1α-1 and PGC1α-2 to the purified MR/corticosterone complex as determined by IC50 values from peptide competition experiments.
The fusion protein contains a His6-TAG ([…]) at the N terminus and a thrombin protease site between GST and the MR LBD. BL21DE3 cells transformed with this expression plasmid were grown in LB broth at 16° C. to an OD600 of ˜1 and induced with 0.1 mM IPTG and 50 μM corticosterone. Cells were harvested, resuspended in 400 ml extract buffer (50 mM Tris[pH8.0], 150 mM NaCl, 2 M Urea, 10% glycerol) per 24 liters of cells, and passed three times through a French Press with pressure set at […]. […] Both human PGC1α (1+2) (residues 1-220) and SRC2-(2+3) (residues 563-763) were expressed as a 6×His-GST fusion protein from the expression vector pET24a (Novagen). […]
The binding of various peptide motifs to MR was determined by AlphaScreen assays using a hexahistidine detection kit from Perkin-Elmer. […]

VP16-MR LBD = target: T2, VP16-MR LBD; assay: Mammalian two hybrid assay, pG5Luc reporter; assay type: cell-based; conditions: 10 nM corticosterone
Protocol: (C) Mammalian two-hybrid interaction of SRC1 with MR. GAL4-DBD were fused with the SRC1-4 motif (SRC1-4, residues 1240-1441) and two mutated forms of SRC1-4 [SRC1-4(E1441K), corresponding to E+7K mutation of the SRC1-4 motif, and SRC1-M4 (L1438A/L1439A), corresponding to the LXXAA mutation of the SRC1-4 motif], respectively. VP16 were fused with MR LBD and MR LBD (K782E). The cells were cotransfected with GAL4 and VP16 fusion constructs and pG5Luc reporter. The cells were treated with 10 nM corticosterone.
Cos-7 cells were maintained in DMEM containing 10% fetal bovine serum (FBS) and were transiently transfected using Lipofectamine 2000 (Invitrogen). 24-Well plates were plated 24 hr prior to transfection (5×10^4 cells per well). Cells were transfected in Opti-MEM with 400 ng of MMTV-Luc reporter plasmid and 400 ng of receptor expression vector (pRS vector) encoding full-length GR and MR respectively (ATCC). […] For cotransfection of MR and SRC1, 50 ng Gal4-MR LBD was transfected with 200 ng pG5Luc and various amounts of PCR3.1-SRC1 as indicated in the figure legend. 18 hours after transfection, steroids were added in DMEM supplemented with 5% Charcoal/Dextran treated FBS (Hyclone). Cells were harvested 24 hours later for luciferase assays. Luciferase data were normalized to Renilla activity as an internal control. […]

| Molecule | interaction with MR LBD (VP16-MR LBD) | also measured |
| --- | --- | --- |
| PGC1α-(1+2): purified human PGC1α fragment (residues 1-220) containing both LXXLL motifs (protein, left off: small tags and cut ends; a dimerising Fc or GST, purified human PGC1α fragment (residues 1-220) containing both LXXLL motifs) MAWDMCNQDSESVWSDIECAALVGEDQPLCPDLPELDLSELDVNDLDTDSFLGGLKWCSDQSEIISNQYNNEPSNIFEKIDEENEANLLAVLTETLDSLPVDEDGLPSFDALTDGDVTTDNEASPSSMPDGTPPPQEAEEPSLLKKLLLAPANTQLSYNECSGLSTQNHANHNHRIRTNPAIVKTENSWSNKAKSICQQQKPQRRPCSELLKYLTTNDDP |  | binding affinity to MR ([1]; compared with single motifs, FIG. 3G): much higher affinity than either motif alone |
| SRC1-4M: GAL4-DBD SRC1-4 with LXXAA mutation of the SRC1-4 motif (protein, left off: large carriers; small tags and cut ends, GAL4-DBD SRC1-4 with LXXAA mutation of the SRC1-4 motif) QGEANFAPSLSPGSSMVPMPIPPPQSSLLQQTPPASGYQSPDMKAWQQGAIGNNNVFSQAVQNQPTPAQPGVYNNMSITVSMAGGNTNVQNMNPMMAQMQMSSLQMPGMNTVCPEQINDPALRHTGLYCNQLSSTDLLKTEADGTQQVQQVQVFADVQCTVNLVGGDPYLNQPGPLGTQKPTSGPQTPQAQQKSLLQQAATE | abolished the interaction |  |
| SRC1-4 E1441K: GAL4-DBD SRC1-4 with E+7K mutation of the SRC1-4 motif (protein, left off: large carriers; small tags and cut ends, GAL4-DBD SRC1-4 with E+7K mutation of the SRC1-4 motif) QGEANFAPSLSPGSSMVPMPIPPPQSSLLQQTPPASGYQSPDMKAWQQGAIGNNNVFSQAVQNQPTPAQPGVYNNMSITVSMAGGNTNVQNMNPMMAQMQMSSLQMPGMNTVCPEQINDPALRHTGLYCNQLSSTDLLKTEADGTQQVQQVQVFADVQCTVNLVGGDPYLNQPGPLGTQKPTSGPQTPQAQQKSLLQQLLTK | failed to interact |  |
| SRC2-(M2+3): SRC2 fragment in which the 2nd LXXLL motif was mutated to LXXAA (protein, left off: small tags and cut ends; a dimerising Fc or GST, SRC2 fragment in which the 2nd LXXLL motif was mutated to LXXAA) QNSPVNMNPPPLSKMGSLDSKDCFGLYGEPSEGTTGQAESSCHPGEQKETNDPNLPPAVSSERADGQSRLHDSKGQTKLLQLLTTKSDQMEPSPLASSLSDTNKDSTGSLPGSGSTHGTSLKEKHKILHRAAQDSSSPVDLAKLTAEATGKDLSQESSSTAPGSEVTIKQEPVSPKKKENALLRYLLDKDDTKDIGLPEIT |  | decrease of binding affinity versus SRC2-(2+3) ([1]; second LXXLL motif mutated): more than 10 fold |
